The record followed here is paper PMC7722734, “Reverse C-glycosidase reaction provides C-nucleotide building blocks of xenobiotic nucleic acids” (Nature Communications, 2020).

One series has as its target T1, Ribokinase (RbsK) (Escherichia coli, UniProt P0A9J6).
T1 construct: full length, N-terminal His6 tag (pET15b), expressed in E. coli BL21(DE3) pLys; 32,290 Da
T1 sequence (P0A9J6 1-309): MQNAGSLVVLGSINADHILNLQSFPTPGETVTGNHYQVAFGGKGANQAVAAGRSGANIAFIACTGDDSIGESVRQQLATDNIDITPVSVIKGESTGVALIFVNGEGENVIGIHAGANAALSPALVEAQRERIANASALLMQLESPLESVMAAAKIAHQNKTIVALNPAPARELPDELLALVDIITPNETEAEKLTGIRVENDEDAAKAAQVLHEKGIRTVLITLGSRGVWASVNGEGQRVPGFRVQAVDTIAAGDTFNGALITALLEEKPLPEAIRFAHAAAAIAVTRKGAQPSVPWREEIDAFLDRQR
The series is described as follows: phosphorylation, TLC. As to conditions: 2 mM ATP with PEP and pyruvate kinase, 1 mM MgCl2, 10 mM HEPES pH 7.0, 37 °C. The format is biochemical.

Substrate in series [1]: O=c1[nH]ccc(=S)[nH]1
The series is described as follows: purified protein. Conditions: 5 mM D-Rib5P, 2 mM MnCl2, 50 mM HEPES pH 7.0, 37 °C, reverse (synthesis) direction.

Substrate in series [2]: O=c1cc[nH]c(=S)[nH]1
In words: purified protein. As to conditions: 5 mM D-Rib5P, 2 mM MnCl2, 50 mM HEPES pH 7.0, 37 °C, reverse (synthesis) direction.

Substrate in series [3]: Cn1c(=O)cc[nH]c1=O
The series is described as follows: purified protein. Conditions: 5 mM D-Rib5P, 2 mM MnCl2, 50 mM HEPES pH 7.0, 37 °C, reverse (synthesis) direction.

Substrate in series [4]: Nc1cc(=O)[nH]c(=O)[nH]1
The series is described as follows: purified protein. As to conditions: 5 mM D-Rib5P, 2 mM MnCl2, 50 mM HEPES pH 7.0, 37 °C, reverse (synthesis) direction.

Turning to `OC[C@H]1OC(O)C[C@@H]1O` (stereo partly drawn) [D-dRib], on Ribokinase (RbsK), the “phosphorylation, TLC” value is listed as “D-Rib, D-dRib, D-Xyl, D-Ara,2F-D-Rib, D-Glc were accepted”.

B1: YeiN (ΨMP C-glycosidase; β-pseudouridine 5′-phosphate glycosidase) (Escherichia coli K-12) (protein)
chain: MSELKISPELLQISPEVQDALKNKKPVVALESTIISHGMPFPQNAQTAIEVEETIRKQGAVPATIAIIGGVMKVGLSKEEIELLGREGHNVTKVSRRDLPFVVAAGKNGATTVASTMIIAALAGIKVFATGGIGGVHRGAEHTFDISADLQELANTNVTVVCAGAKSILDLGLTTEYLETFGVPLIGYQTKALPAFFCRTSPFDVSIRLDSASEIARAMVVKWQSGLNGGLVVANPIPEQFAMPEHTINAAIDQAVAEAEAQGVIGKESTPFLLARVAELTGGDSLKSNIQLVFNNAILASEIAKEYQRLAG
A word on the Km: it is the substrate concentration at which the rate is half of its maximum. In general, kcat refers to the maximal rate divided by the concentration of active sites. Regarding B1, the Km was determined as 1980 ± 300 µM in “purified protein [1]”, 7400 ± 2200 µM in “purified protein [2]”, 1250 ± 330 µM in the series “purified protein [3]” and 3230 ± 520 µM in “purified protein [4]”. The kcat was 0.01 ± 0.01 s⁻¹ in “purified protein [1]”, 0.43 ± 0.10 s⁻¹ in the series “purified protein [2]”, 0.46 ± 0.04 s⁻¹ in the series “purified protein [3]” and 0.01 ± 0.01 s⁻¹ in “purified protein [4]”.
